Data set [1] concerns the target T1, TDP43 RRM1 (UniProt Q13148 101-192). In words: CG-MALS.
Data set [2] deals with T2, CELF1 RRM1-2 (UniProt Q92879 1-187). In words: EMSA.
Data set [3] addresses T1, TDP43 RRM1. In words: CG-MALS. This is another data set of the same source.
In data set [4] the target is T2, CELF1 RRM1-2. Briefly: CG-MALS.

Read-outs that look alike come from different tables or passages of the source.

As usually defined, the Kd is the concentration at which binding is half-saturated. Higher therefore signals weaker binding.

T2 sequence (Q92879 1-187): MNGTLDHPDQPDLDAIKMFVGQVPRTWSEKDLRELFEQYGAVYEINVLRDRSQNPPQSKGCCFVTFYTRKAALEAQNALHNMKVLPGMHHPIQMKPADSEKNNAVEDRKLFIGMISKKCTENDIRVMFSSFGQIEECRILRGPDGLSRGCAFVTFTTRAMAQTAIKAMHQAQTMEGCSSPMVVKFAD
T1 sequence (Q13148 101-192): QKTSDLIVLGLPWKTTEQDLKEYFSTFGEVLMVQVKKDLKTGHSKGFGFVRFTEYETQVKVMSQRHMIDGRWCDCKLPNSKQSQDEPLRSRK

B1: (TG)6 ssDNA (ssDNA)
DNA: TGTGTGTGTGTG
In turn, B1 gave a Kd with TDP43 RRM1 [1] of 10400 ± 3200 nM.

B2: (UGUU)4 ssRNA (ssRNA)
RNA: UGUUUGUUUGUUUGUU
B2: the binding result in the data set with CELF1 RRM1-2 [2] is recorded as “binds”.

B3: (GT)12 ssDNA (ssDNA)
DNA: GTGTGTGTGTGTGTGTGTGTGTGT
The molecule B3 returned a Kd with TDP43 RRM1 [3] of 1340 ± 120 nM.

B4: (GU)22 ssRNA (ssRNA)
RNA: GUGUGUGUGUGUGUGUGUGUGUGUGUGUGUGUGUGUGUGUGUGU
Take B4: in the data set with CELF1 RRM1-2 [4], the Kd worked out at 390 ± 30 nM.

The values are drawn from article PMC11447847.
